Among the data in patent US20240368574A1 are rapamycin concentration (small molecule), rapamycin concentration and SRα-SEAP reporter activity of transfected 293 cells after overnight rapamycin (small-molecule heterodimerizer) values, retold here.

What all share (experiment): cell-based or functional assay
Test [1] has as its target FKBP.FRB.ΔC9 expressed from pBP1311-pSFG.FKBP.FRB.ΔC9.T2A-ΔCD19.
Test [2] has as its target FRB.FKBP.ΔC9 expressed from pBP1310-pSFG.FRB.FKBP.ΔC9.T2A-ΔCD19.
The target of test [3] is ΔMyr.iMC (MyD88.CD40.Fv'.Fv) expressed from pBP0606-pSFG-k-ΔMyr.iMC.2A-ΔCD19 (human).
Sequence of ΔMyr.iMC (MyD88.CD40.Fv'.Fv) expressed from pBP0606-pSFG-k-ΔMyr.iMC.2A-ΔCD19 (human) (main, as listed by the source mutant): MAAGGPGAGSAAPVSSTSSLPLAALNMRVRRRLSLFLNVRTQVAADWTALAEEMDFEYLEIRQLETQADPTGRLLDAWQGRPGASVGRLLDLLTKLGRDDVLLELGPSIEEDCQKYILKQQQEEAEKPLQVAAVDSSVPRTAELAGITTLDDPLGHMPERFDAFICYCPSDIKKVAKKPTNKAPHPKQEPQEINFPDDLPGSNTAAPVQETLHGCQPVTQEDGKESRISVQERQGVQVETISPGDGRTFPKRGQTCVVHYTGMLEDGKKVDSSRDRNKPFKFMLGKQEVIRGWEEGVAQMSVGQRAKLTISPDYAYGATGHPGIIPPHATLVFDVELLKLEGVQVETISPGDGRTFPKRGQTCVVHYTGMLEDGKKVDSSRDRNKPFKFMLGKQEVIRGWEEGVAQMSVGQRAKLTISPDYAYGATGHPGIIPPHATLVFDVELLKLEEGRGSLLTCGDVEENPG
Test [4] concerns the target Her2-CAR-FRBl2 (1st generation Her2-CAR fused to two tandem FRBl domains).
Test [5] has as its target CD19-CAR-FRBl2 (1st generation CD19-CAR fused to two tandem FRBl domains, co-expressed with iCaspase9 from iC9-CAR(19).FRBl2).

Sequence of FKBP.FRB.ΔC9 expressed from pBP1311-pSFG.FKBP.FRB.ΔC9.T2A-ΔCD19 (P55211 other isoform, or with tags, fused parts or gaps, stated change not applied): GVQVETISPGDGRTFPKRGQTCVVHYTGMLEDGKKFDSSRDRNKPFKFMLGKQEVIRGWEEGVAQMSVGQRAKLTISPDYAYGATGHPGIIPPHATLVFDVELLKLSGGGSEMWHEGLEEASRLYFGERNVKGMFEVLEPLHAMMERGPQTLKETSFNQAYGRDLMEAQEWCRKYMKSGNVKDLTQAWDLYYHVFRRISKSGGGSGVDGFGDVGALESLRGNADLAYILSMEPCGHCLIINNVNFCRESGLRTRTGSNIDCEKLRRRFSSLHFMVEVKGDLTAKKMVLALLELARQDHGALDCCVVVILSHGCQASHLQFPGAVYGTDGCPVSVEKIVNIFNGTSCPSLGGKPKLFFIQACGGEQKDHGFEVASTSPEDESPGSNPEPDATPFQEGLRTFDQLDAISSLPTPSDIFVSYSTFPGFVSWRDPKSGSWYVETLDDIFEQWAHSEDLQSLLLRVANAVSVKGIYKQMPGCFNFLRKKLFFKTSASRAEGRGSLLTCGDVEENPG
Sequence of FRBL2.Caspase9 expressed from pBP0668-pSFG-FRBlx2.Caspase9.2A-Q.8stm.CD3zeta (chain, part): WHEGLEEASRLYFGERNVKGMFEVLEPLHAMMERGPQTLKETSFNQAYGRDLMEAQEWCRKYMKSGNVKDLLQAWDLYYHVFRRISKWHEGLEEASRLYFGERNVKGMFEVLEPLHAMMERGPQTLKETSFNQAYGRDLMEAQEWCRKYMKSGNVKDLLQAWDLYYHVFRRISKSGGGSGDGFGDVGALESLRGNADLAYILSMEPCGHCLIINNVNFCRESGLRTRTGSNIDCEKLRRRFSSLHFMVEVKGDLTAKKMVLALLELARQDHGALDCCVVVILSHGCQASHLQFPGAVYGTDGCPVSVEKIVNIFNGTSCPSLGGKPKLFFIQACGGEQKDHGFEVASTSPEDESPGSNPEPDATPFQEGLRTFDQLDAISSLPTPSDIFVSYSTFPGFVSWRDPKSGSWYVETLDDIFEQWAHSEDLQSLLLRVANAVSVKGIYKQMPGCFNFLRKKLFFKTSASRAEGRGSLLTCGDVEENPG
Sequence of FRB.FKBP.ΔC9 expressed from pBP1310-pSFG.FRB.FKBP.ΔC9.T2A-ΔCD19 (P55211 other isoform, or with tags, fused parts or gaps, stated change not applied): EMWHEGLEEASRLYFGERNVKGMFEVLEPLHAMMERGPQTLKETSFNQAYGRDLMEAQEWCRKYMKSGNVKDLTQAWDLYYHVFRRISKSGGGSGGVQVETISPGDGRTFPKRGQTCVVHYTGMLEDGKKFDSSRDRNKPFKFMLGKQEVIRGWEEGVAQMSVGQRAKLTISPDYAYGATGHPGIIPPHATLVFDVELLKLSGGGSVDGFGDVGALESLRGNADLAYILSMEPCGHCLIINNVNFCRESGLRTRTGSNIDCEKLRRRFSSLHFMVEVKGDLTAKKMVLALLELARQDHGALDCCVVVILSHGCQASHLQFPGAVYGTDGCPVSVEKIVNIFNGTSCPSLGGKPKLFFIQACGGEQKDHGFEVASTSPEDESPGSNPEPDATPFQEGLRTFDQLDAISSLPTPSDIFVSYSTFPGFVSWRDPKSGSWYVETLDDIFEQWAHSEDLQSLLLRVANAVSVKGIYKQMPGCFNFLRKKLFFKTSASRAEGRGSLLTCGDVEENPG

As for “FKBP.FRB.ΔC9 expressed from pBP1311-pSFG.FKBP.FRB.ΔC9.T2A-ΔCD19”, the rapamycin concentration (small molecule) at which the construct was still highly active, caspase 3/7 and SRα-SEAP assays in transfected 293 cells in test [1] stood at 100 pM. In test [2], “FRB.FKBP.ΔC9 expressed from pBP1310-pSFG.FRB.FKBP.ΔC9.T2A-ΔCD19” registered a rapamycin concentration (small molecule) at which the construct was still highly active, caspase 3/7 and SRα-SEAP assays in transfected 293 cells of 100 pM. In test [3], “FRBL2.Caspase9 expressed from pBP0668-pSFG-FRBlx2.Caspase9.2A-Q.8stm.CD3zeta” came in with a rapamycin concentration at which doubly transduced (CD34+CD19+) primary T cells were eliminated, flow cytometry after 24 hours of 2 nM.

iCaspase-9 as used in Example 17: the SRα-SEAP reporter activity of transfected 293 cells after overnight rapamycin (small-molecule heterodimerizer) in test [4] and in test [5] was 50 % decrease each time.
